Data as given in patent US10973880B2, “Compositions and methods for treating pulmonary hypertension” (Acceleron Pharma Inc., priority 2016, dated 2021).

Assays:
[1] = test system: rat model of pulmonary arterial hypertension (PAH), monocrotaline (MCT) induced; assay: monocrotaline rat model of pulmonary arterial hypertension; assay type: in vivo, Sprague Dawley rats
Method: The effects of an ActRIIA-mFc fusion protein (ActRIIA-mFc homodimer as described in Example 1), an ALK4-Fc-ActRIIB-Fc heterodimer (as described in Examples 12 and 13), and sildenafil (a phosphodiesterase-5 inhibitor approved for the treatment of PAH) were examined in a rat model of pulmonary arterial hypertension (PAH). In this model, Sprague Dawley rats received a […] injection of monocrotaline (MCT) to induce PAH 24 hours prior to start of therapy.
Rats were separated into different treatment groups (10 mice per group): 1) treatment with MCT (60 mg/kg administered i.p. as a single dose at day 1 of study) and Tris buffered saline (i.p. as 1 ml/kg, every three days) (vehicle treatment group), 2) treatment with an ActRIIA-mFc polypeptide (10 mg/kg administered i.p. every three days) and MCT (60 mg/kg administered i.p. as a single dose at day 1 of study), 3) treatment with an ALK4-Fc:ActRIIB-Fc heterodimer (10 mg/kg administered i.p. every three days) and MCT (60 mg/kg administered i.p. as a single dose at day 1 of study), 4) treatment with sildenafil (30 mg/kg administered orally twice daily) and MCT (60 mg/kg administered i.p. as a single dose at day 1 of study), and 5) control rats (Tris buffered saline administered i.p. as 1 ml/kg, every three days). Rats were treated for 28 days. Body weights were recorded prior to first dose on Day 1 and then weekly throughout the study.
On day 28, rats were anesthetized by an intraperitoneal injection of ketamine/xylazine (80/10 mg/kg). An incision was made in the neck, and a jugular vein was isolated and ligated anteriorly. A fluid-filled pressure catheter was introduced into the right jugular vein to measure pulmonary artery pressure (PAP). Another incision was made in the inguinal region, and femoral artery was isolated and ligated anteriorly. A Millar pressure catheter was introduced into a femoral artery to measure systolic arterial pressure, diastolic pressure, and heart rate. Mean arterial pressure and right PAP were monitored using the Notocord HEM (Croissy sur Seine, Frnace) v3.5 data capture system for approximately 5-10 minutes until stable measurements were obtained. During the measurements, rats were maintained at approximately 37° C. on a heating pad and body temperature was monitored throughout the procedure with a rectal temperature probe. At the conclusion of the procedure, rats were euthanized, and the hearts and lungs were removed. The entire heart was weighed. Next, the atria were removed and the left ventricle with septum (LV+S) was separated from the right ventricle (RV). The ventricles were weighed separately. Hypertrophy was assessed, in part, by calculating RV/LV+S. The lungs were also weighed.
Similar trends were observed on vessel muscularity based on histopathologic scoring. After staining tissue samples to detect αSMA/elastin, 100 pulmonary arterioles, between 10 μm and 50 μm in size, per animal were categorized as non-muscularized, partially muscularized, or completely muscularized. Pulmonary arterioles from vehicle treated rats were determined to be 62.3% completely muscularized, 36.4% partially muscularized, and 1.4% non-muscularized. […] Histopathological scoring of smooth muscle hypertrophy of pulmonary arterioles were also recorded as follows: 0 (normal), 1 (minimal), 2 (mild), 3 (moderate), or 4 (marked).

GDF8 = molecular target: T1, GDF8 (Homo sapiens, UniProt O14793); assay: Biacore assay, receptor captured with anti-hFc antibody; assay type: binding
T1 sequence (O14793 267-375): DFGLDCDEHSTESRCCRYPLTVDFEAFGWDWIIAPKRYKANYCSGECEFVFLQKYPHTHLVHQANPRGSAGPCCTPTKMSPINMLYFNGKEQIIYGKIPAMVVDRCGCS
Method: (§1) Binding of certain ActRIIB-Fc proteins and GDF traps to ligands was tested in a Biacore assay.
(§2) The ActRIIB-Fc variants or wild-type protein were captured onto the system using an anti-hFc antibody. Ligands were injected and flowed over the captured receptor proteins.

activin A = molecular target: T2, activin A (Homo sapiens, UniProt P08476); assay: as above; assay type: binding
T2 sequence (P08476 311-426): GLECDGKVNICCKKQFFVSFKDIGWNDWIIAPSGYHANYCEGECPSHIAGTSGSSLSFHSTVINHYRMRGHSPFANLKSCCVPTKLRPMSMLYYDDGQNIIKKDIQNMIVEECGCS
Method: as §1, §2

activin A (ActA) = molecular target: T3, activin A (ActA) (Homo sapiens, UniProt P08476); details: reproduced from WO2006/012627; cited from earlier work
T3 sequence (P08476 311-426): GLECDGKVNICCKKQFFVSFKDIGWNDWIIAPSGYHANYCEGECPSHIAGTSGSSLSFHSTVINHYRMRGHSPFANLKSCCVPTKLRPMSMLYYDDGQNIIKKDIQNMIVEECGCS

GDF11 = molecular target: T4, GDF11 (Homo sapiens, UniProt O95390); details: reproduced from WO2006/012627; cited from earlier work
T4 sequence (O95390 299-407): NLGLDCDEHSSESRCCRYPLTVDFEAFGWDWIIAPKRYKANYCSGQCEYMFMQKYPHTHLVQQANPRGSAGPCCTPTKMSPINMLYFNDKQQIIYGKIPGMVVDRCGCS

| Molecule | ActA binding relative to WT (activin A (ActA)) | GDF11 binding relative to WT (GDF11) | further results |
| --- | --- | --- | --- |
| CCCc1nn(C)c2c(=O)[nH]c(-c3cc(S(=O)(=O)N4CCN(C)CC4)ccc3OCC)nc12 [sildenafil, reference compound] |  |  | smooth muscle hypertrophy of pulmonary arterioles, average histopathological score ([1]; 0 normal, 1 minimal, 2 mild, 3 moderate, 4 marked): 3 score; improvement in body weight ([1]; 28 days, compared to monocrotaline treated rats, proteins 10 mg/kg i.p. every three days, sildenafil 30 mg/kg orally twice daily): did not have any improvement |
| ActRIIB(P129S, P130R 20-134)-hFc: ActRIIB(20-134)-hFc variant with P129S and P130R mutations (protein) GRGEAETRECIYYNANWELERTNQSGLERCEGEQDKRLHCYASWRNSSGTIELVKKGCWLDDFNCYDRQECVATEENPQVYFCCCEGNFCNERFTHLPEAGGPEVTYEPSRTAPTGGGTHTCPPCPAPELLGGPSVFLFPPKPKDTLMISRTPEVTCVVVDVSHEDPEVKFNWYVDGVEVHNAKTKPREEQYNSTYRVVSVLTVLHQDWLNGKEYKCKVSNKALPVPIEKTISKAKGQPREPQVYTLPPSREEMTKNQVSLTCLVKGFYPSDIAVEWESNGQPENNYKTTPPVLDSDGSFFLYSKLTVDKSRWQQGNVFSCSVMHEALHNHYTQKSLSLSPGK |  |  | Koff, GDF8 (GDF8): 0.00018 s⁻¹; Koff, Activin A (activin A): 0.000417 s⁻¹; Kon, Activin A (activin A): 5.02e+06 M⁻¹ s⁻¹ |
| ActRIIB(K74A 20-134)-hFc: ActRIIB(20-134)-hFc variant with K74A mutation (protein) GRGEAETRECIYYNANWELERTNQSGLERCEGEQDKRLHCYASWRNSSGTIELVAKGCWLDDFNCYDRQECVATEENPQVYFCCCEGNFCNERFTHLPEAGGPEVTYEPPPTAPTGGGTHTCPPCPAPELLGGPSVFLFPPKPKDTLMISRTPEVTCVVVDVSHEDPEVKFNWYVDGVEVHNAKTKPREEQYNSTYRVVSVLTVLHQDWLNGKEYKCKVSNKALPVPIEKTISKAKGQPREPQVYTLPPSREEMTKNQVSLTCLVKGFYPSDIAVEWESNGQPENNYKTTPPVLDSDGSFFLYSKLTVDKSRWQQGNVFSCSVMHEALHNHYTQKSLSLSPGK |  |  | Koff, GDF8 (GDF8): 2.03e-05 s⁻¹ |
| ActRIIB(R64K 20-129)-hFc: ActRIIB(20-129)-hFc variant with R64K mutation (protein) GRGEAETRECIYYNANWELERTNQSGLERCEGEQDKRLHCYASWKNSSGTIELVKKGCWLDDFNCYDRQECVATEENPQVYFCCCEGNFCNERFTHLPEAGGPEVTYEPPGGGTHTCPPCPAPELLGGPSVFLFPPKPKDTLMISRTPEVTCVVVDVSHEDPEVKFNWYVDGVEVHNAKTKPREEQYNSTYRVVSVLTVLHQDWLNGKEYKCKVSNKALPVPIEKTISKAKGQPREPQVYTLPPSREEMTKNQVSLTCLVKGFYPSDIAVEWESNGQPENNYKTTPPVLDSDGSFFLYSKLTVDKSRWQQGNVFSCSVMHEALHNHYTQKSLSLSPGK |  |  | Koff, GDF8 (GDF8): 0.000209 s⁻¹; Koff, Activin A (activin A): 0.000628 s⁻¹; Kon, Activin A (activin A): 7.46e+06 M⁻¹ s⁻¹ |
| D54A: soluble ActRIIB-Fc variant D54A (protein, left off: a dimerising Fc or GST) SGRGEAETRECIYYNANWELERTNQSGLERCEGEQAKRLHCYASWANSSGTIELVKKGCWLDDFNCYDRQECVATEENPQVYFCCCEGNFCNERFTHLPEA | − (~1/2 WT binding) |  |  |
| K74A: soluble ActRIIB-Fc variant K74A (WO2006/012627 table) (protein, left off: a dimerising Fc or GST) SGRGEAETRECIYYNANWELERTNQSGLERCEGEQDKRLHCYASWANSSGTIELVAKGCWLDDFNCYDRQECVATEENPQVYFCCCEGNFCNERFTHLPEA | +++++ (~40× increased binding) | +++++ (~40× increased binding) |  |
| F82A: soluble ActRIIB-Fc variant F82A (protein, left off: a dimerising Fc or GST) SGRGEAETRECIYYNANWELERTNQSGLERCEGEQDKRLHCYASWANSSGTIELVKKGCWLDDANCYDRQECVATEENPQVYFCCCEGNFCNERFTHLPEA | ++ (<2× increased binding) | − (~1/2 WT binding) |  |
| L79A: soluble ActRIIB-Fc variant L79A (protein, left off: a dimerising Fc or GST) SGRGEAETRECIYYNANWELERTNQSGLERCEGEQDKRLHCYASWANSSGTIELVKKGCWADDFNCYDRQECVATEENPQVYFCCCEGNFCNERFTHLPEA | + (WT) |  |  |
| R40A: soluble ActRIIB-Fc variant R40A (protein, left off: a dimerising Fc or GST) SGRGEAETRECIYYNANWELEATNQSGLERCEGEQDKRLHCYASWANSSGTIELVKKGCWLDDFNCYDRQECVATEENPQVYFCCCEGNFCNERFTHLPEA | − (~1/2 WT binding) | − (~1/2 WT binding) |  |
| K55A: soluble ActRIIB-Fc variant K55A (protein, left off: a dimerising Fc or GST) SGRGEAETRECIYYNANWELERTNQSGLERCEGEQDARLHCYASWANSSGTIELVKKGCWLDDFNCYDRQECVATEENPQVYFCCCEGNFCNERFTHLPEA | ++ (<2× increased binding) |  |  |
| WT (64A): soluble ActRIIB-Fc, wild type with alanine at position 64 (WO2006/012627) (protein, left off: a dimerising Fc or GST) SGRGEAETRECIYYNANWELERTNQSGLERCEGEQDKRLHCYASWANSSGTIELVKKGCWLDDFNCYDRQECVATEENPQVYFCCCEGNFCNERFTHLPEA | (+) (WT) | (+) (WT) |  |
| +15tail: soluble ActRIIB-Fc variant labelled +15tail (WO2006/012627) (protein, left off: a dimerising Fc or GST) SGRGEAETRECIYYNANWELERTNQSGLERCEGEQDKRLHCYASWANSSGTIELVKKGCWLDDFNCYDRQECVATEENPQVYFCCCEGNFCNERFTHLPEAGGPEVTYEPPPTAPT | (+++) (~5× increased binding) | (++++) (~10× increased binding) | Kd (GDF11): 19 nM |
